Reference: patent publication US20210388110A1 (published 2021)
Numbering of substitutions follows the chain as printed. One block for each binder: values may come before it.

Target: T1, soluble human CD3ε chain (human, UniProt P07766 23-126, limits assumed)
T1 construct: also called human CD3 epsilon chain
Assay: SPR (Biacore), soluble human CD3ε chain

T1 sequence (P07766 23-126 limits assumed): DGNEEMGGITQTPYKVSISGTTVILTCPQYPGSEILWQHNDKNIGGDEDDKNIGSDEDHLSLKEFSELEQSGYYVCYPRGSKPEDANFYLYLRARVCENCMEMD

Kd: 75.5 nM
B1: TR01H031-E22Hh/none-Hi-Kn010G3/L0000-k0 (antibody, human IgG1, kappa, L234A L235A, N297A)
heavy: QVQLVESGGGVVQPGGSLRLSCAASGFTFSNAWMHWVRQAPGKGLEWVAQIKGKSNNYATYYAESVKGRFTISRADSKNSIYLQMNSLKTEDTAVYYCRYVHYSASYGVDIWGQGTTVTVSSASTKGPSVFPLAPSSKSTSGGTAALGCLVKDYFPEPVTVSWNSGALTSGVHTFPAVLQSSGLYSLSSVVTVPSSSLGTQTYICNVNHKPSNTKVDKKVEPKSCDKTHTCPPCPAPEAAGGPSVFLFPPKPKDTLMISRTPEVTCVVVDVSHEDPEVKFNWYVDGVEVHNAKTKPREEQYASTYRVVSVLTVLHQDWLNGKEYKCKVSNKALPAPIEKTISKAKGQPREPQVYTLPPSRCELTKNQVSLSCAVKGFYPSDIAVEWESNGQPENNYKTTPPVLDSDGSFFLVSKLTVDKSRWQQGNVFSCSVMHEALHNHYTQKSLSLSPDYKDDDDK
chain: EPKSSDKTHTCPPCPAPELLGGPSVFLFPPKPKDTLMISRTPEVTCVVVDVSHEDPEVKFNWYVDGVEVHNAKTKPREEQYNSTYRVVSVLTVLHQDWLNGKEYKCKVSNKALPAPIEKTISKAKGQPREPQVCTLPPSRDELTKNQVSLWCLVKGFYPSDIAVEWESNGQPENNYKTTPPVLDSDGSFFLYSKLTVDKSRWQQGNVFSCSVMHEALHNRYTQKSLSLSP
light: DIVMTQSPLSLPVTPGEPASISCRSSQSLVHSNRNTYLHWYQQKPGQAPRLLIYKVSNRFSGVPDRFSGSGSGTDFTLKISRVEAEDVGVYYCGQGTQVPYTFGQGTKLEIKRTVAAPSVFIFPPSDEQLKSGTASVVCLLNNFYPREAKVQWKVDNALQSGNSQESVTEQDSKDSTYSLSSTLTLSKADYEKHKVYACEVTHQGLSSPVTKSFNRGEC
notes: one-arm antibody (single Fab) with Fab-less hinge-Fc chain Hi-Kn010G3

Kd: 112 nM
B2: TR01H057-E22Hh/none-Hi-Kn010G3/L0000-k0 (antibody, human IgG1, kappa, L234A L235A, N297A)
heavy: B1 heavy with V11L, G16R, G53D, N56Q, A75D, I81L, I111A
chain: B1 chain
light: B1 light
notes: as for B1

Kd: 115 nM
B3: TR01H058-E22Hh/none-Hi-Kn010G3/L0000-k0 (antibody, human IgG1, kappa, L234A L235A, N297A)
heavy: B1 heavy with V11L, G16R, G53D, N56Q, A75D, I81L, I111Y
chain: B1 chain
light: B1 light
notes: as for B1

Kd: 80.1 nM
B4: TR01H040-E22Hh/none-Hi-Kn010G3/L0226-k0 (antibody, human IgG1, kappa, L234A L235A, N297A)
heavy: B1 heavy with V11L, G16R, G53D, N56Q, I111A
chain: B1 chain
light: B1 light with L29P, L38I, G94I
notes: as for B1

Kd: 84.9 nM
B5: TR01H035-E22Hh/none-Hi-Kn010G3/L0000-k0 (antibody, human IgG1, kappa, L234A L235A, N297A)
heavy: B1 heavy with V11L, G16R, N56Q, I111Y
chain: B1 chain
light: B1 light
notes: as for B1

Kd: 52.6 nM
B6: TR01H067-E22Hh/none-Hi-Kn010G3/TR01L018-k0 (antibody, human IgG1, kappa, L234A L235A, N297A)
heavy: B1 heavy with V11L, G16R, G53D, N56Q, A75D, I81L, S104A, I111A
chain: B1 chain
light: B1 light with R24Q, S25A, Q27E, L29P, Q42L, A48S, R50Q
notes: as for B1

Kd: 73.2 nM
B7: TR01H056-E22Hh/none-Hi-Kn010G3/L0000-k0 (antibody, human IgG1, kappa, L234A L235A, N297A)
heavy: B1 heavy with V11L, G16R, G53D, N56Q, A75D, I81L
chain: B1 chain
light: B1 light
notes: as for B1

Kd: 74.1 nM
B8: TR01H067-E22Hh/none-Hi-Kn010G3/L0215-k0 (antibody, human IgG1, kappa, L234A L235A, N297A)
heavy: B1 heavy with V11L, G16R, G53D, N56Q, A75D, I81L, S104A, I111A
chain: B1 chain
light: B1 light with S28P, L29P, L38I
notes: as for B1

Kd: 82.3 nM
B9: TR01H053-E22Hh/none-Hi-Kn010G3/L0000-k0 (antibody, human IgG1, kappa, L234A L235A, N297A)
heavy: B1 heavy with V11L, G16R, G53D, N56Q, I81L, I111A
chain: B1 chain
light: B1 light
notes: as for B1

Kd: 74.2 nM
B10: TR01H082-E22Hh/none-Hi-Kn010G3/L0270-k0 (antibody, human IgG1, kappa, L234A L235A, N297A)
heavy: B1 heavy with V11L, G16R, G53D, N56Q, A75D, I81L, S104A, S106G, I111A
chain: B1 chain
light: B1 light with N35Q
notes: as for B1

Kd: 68.2 nM
B11: TR01H040-E22Hh/none-Hi-Kn010G3/TR01L007-k0 (antibody, human IgG1, kappa, L234A L235A, N297A)
heavy: B1 heavy with V11L, G16R, G53D, N56Q, I111A
chain: B1 chain
light: B1 light with R24Q, S25A, Q27E, Q42L, A48S, R50Q
notes: as for B1

Kd: 76.3 nM
B12: TR01H067-E22Hh/none-Hi-Kn010G3/L0222-k0 (antibody, human IgG1, kappa, L234A L235A, N297A)
heavy: B1 heavy with V11L, G16R, G53D, N56Q, A75D, I81L, S104A, I111A
chain: B1 chain
light: B1 light with L29P, L38I, H39Q, G94Y
notes: as for B1

Kd: 132 nM
B13: TR01H067-E22Hh/none-Hi-Kn010G3/L0226-k0 (antibody, human IgG1, kappa, L234A L235A, N297A)
heavy: B1 heavy with V11L, G16R, G53D, N56Q, A75D, I81L, S104A, I111A
chain: B1 chain
light: B1 light with L29P, L38I, G94I
notes: as for B1

Kd: 109 nM
B14: TR01H082-E22Hh/none-Hi-Kn010G3/TR01L017-k0 (antibody, human IgG1, kappa, L234A L235A, N297A)
heavy: B1 heavy with V11L, G16R, G53D, N56Q, A75D, I81L, S104A, S106G, I111A
chain: B1 chain
light: B1 light with L29P, L38I, H39Q, Q42L, A48S, R50Q, G94Y
notes: as for B1

Kd: 72.1 nM
B15: TR01H092-E22Hh/none-Hi-Kn010G3/L0011-k0 (antibody, human IgG1, kappa, L234A L235A, N297A)
heavy: B1 heavy with V11L, G16R, G53D, N56Q, K67A, A75D, I81L, S104A, S106G, I111A
chain: B1 chain
light: B1 light with S28P
notes: as for B1

Kd: 74.4 nM
B16: TR01H082-E22Hh/none-Hi-Kn010G3/L0272-k0 (antibody, human IgG1, kappa, L234A L235A, N297A)
heavy: B1 heavy with V11L, G16R, G53D, N56Q, A75D, I81L, S104A, S106G, I111A
chain: B1 chain
light: B1 light with S28P, N35Q
notes: as for B1

Kd: 77.9 nM
B17: TR01H054-E22Hh/none-Hi-Kn010G3/L0000-k0 (antibody, human IgG1, kappa, L234A L235A, N297A)
heavy: B1 heavy with V11L, G16R, G53D, N56Q, I81L, I111Y
chain: B1 chain
light: B1 light
notes: as for B1

Kd: 86.4 nM
B18: TR01H067-E22Hh/none-Hi-Kn010G3/TR01L015-k0 (antibody, human IgG1, kappa, L234A L235A, N297A)
heavy: B1 heavy with V11L, G16R, G53D, N56Q, A75D, I81L, S104A, I111A
chain: B1 chain
light: B1 light with L29P, Q42L, A48S, R50Q
notes: as for B1

Kd: 106 nM
B19: TR01H082-E22Hh/none-Hi-Kn010G3/TR01L020-k0 (antibody, human IgG1, kappa, L234A L235A, N297A)
heavy: B1 heavy with V11L, G16R, G53D, N56Q, A75D, I81L, S104A, S106G, I111A
chain: B1 chain
light: B1 light with R24Q, S25A, Q27E, L29P, L38I, H39Q, Q42L, A48S, R50Q, G94Y
notes: as for B1

Kd: 71.8 nM
B20: TR01H067-E22Hh/none-Hi-Kn010G3/L0011-k0 (antibody, human IgG1, kappa, L234A L235A, N297A)
heavy: B1 heavy with V11L, G16R, G53D, N56Q, A75D, I81L, S104A, I111A
chain: B1 chain
light: B1 light with S28P
notes: as for B1

Kd: 91.1 nM
B21: TR01H034-E22Hh/none-Hi-Kn010G3/L0000-k0 (antibody, human IgG1, kappa, L234A L235A, N297A)
heavy: B1 heavy with V11L, G16R, N56Q, I111A
chain: B1 chain
light: B1 light
notes: as for B1

Kd: 100 nM
B22: TR01H040-E22Hh/none-Hi-Kn010G3/L0247-k0 (antibody, human IgG1, kappa, L234A L235A, N297A)
heavy: B1 heavy with V11L, G16R, G53D, N56Q, I111A
chain: B1 chain
light: B1 light with L29P, L38I, H39Q, G94I
notes: as for B1

Kd: 111 nM
B23: TR01H040-E22Hh/none-Hi-Kn010G3/L0249-k0 (antibody, human IgG1, kappa, L234A L235A, N297A)
heavy: B1 heavy with V11L, G16R, G53D, N56Q, I111A
chain: B1 chain
light: B1 light with S25P, L29P, L38I, H39Q, G94S
notes: as for B1

Kd: 98.8 nM
B24: TR01H075-E22Hh/none-Hi-Kn010G3/L0000-k0 (antibody, human IgG1, kappa, L234A L235A, N297A)
heavy: B1 heavy with V11L, G16R, G53D, N56Q, A75D, I81L, S104A, I111Y
chain: B1 chain
light: B1 light
notes: as for B1

Kd: 136 nM
B25: TR01H082-E22Hh/none-Hi-Kn010G3/L0268-k0 (antibody, human IgG1, kappa, L234A L235A, N297A)
heavy: B1 heavy with V11L, G16R, G53D, N56Q, A75D, I81L, S104A, S106G, I111A
chain: B1 chain
light: B1 light with L29P, L38I, H39Q, G94V
notes: as for B1

Kd: 68.2 nM
B26: TR01H082-E22Hh/none-Hi-Kn010G3/L0271-k0 (antibody, human IgG1, kappa, L234A L235A, N297A)
heavy: B1 heavy with V11L, G16R, G53D, N56Q, A75D, I81L, S104A, S106G, I111A
chain: B1 chain
light: B1 light with S28P, L29P, N35Q
notes: as for B1

Kd: 66.7 nM
B27: TR01H091-E22Hh/none-Hi-Kn010G3/L0011-k0 (antibody, human IgG1, kappa, L234A L235A, N297A)
heavy: B1 heavy with V11L, G16R, R19K, G53D, N56Q, A75D, I81L, S104A, S106G, I111A
chain: B1 chain
light: B1 light with S28P
notes: as for B1

Kd: 101 nM
B28: TR01H040-E22Hh/none-Hi-Kn010G3/L0227-k0 (antibody, human IgG1, kappa, L234A L235A, N297A)
heavy: B1 heavy with V11L, G16R, G53D, N56Q, I111A
chain: B1 chain
light: B1 light with L29P, L38I, G94L
notes: as for B1

Kd: 78.9 nM
B29: TR01H040-E22Hh/none-Hi-Kn010G3/L0248-k0 (antibody, human IgG1, kappa, L234A L235A, N297A)
heavy: B1 heavy with V11L, G16R, G53D, N56Q, I111A
chain: B1 chain
light: B1 light with S25P, L29P, L38I, H39Q, G94Y
notes: as for B1

Kd: 92.8 nM
B30: TR01H040-E22Hh/none-Hi-Kn010G3/L0246-k0 (antibody, human IgG1, kappa, L234A L235A, N297A)
heavy: B1 heavy with V11L, G16R, G53D, N56Q, I111A
chain: B1 chain
light: B1 light with L29P, L38I, H39Q, G94S
notes: as for B1

Kd: 101 nM
B31: TR01H082-E22Hh/none-Hi-Kn010G3/L0222-k0 (antibody, human IgG1, kappa, L234A L235A, N297A)
heavy: B1 heavy with V11L, G16R, G53D, N56Q, A75D, I81L, S104A, S106G, I111A
chain: B1 chain
light: B1 light with L29P, L38I, H39Q, G94Y
notes: as for B1

Kd: 120 nM
B32: TR01H070-E22Hh/none-Hi-Kn010G3/L0000-k0 (antibody, human IgG1, kappa, L234A L235A, N297A)
heavy: B1 heavy with G53D, N56Q, A75D, I81L, S104A, I111Y
chain: B1 chain
light: B1 light
notes: as for B1

Kd: 69.5 nM
B33: TR01H090-E22Hh/none-Hi-Kn010G3/L0011-k0 (antibody, human IgG1, kappa, L234A L235A, N297A)
heavy: B1 heavy with V11L, G53D, N56Q, A75D, I81L, S104A, S106G, I111A
chain: B1 chain
light: B1 light with S28P
notes: as for B1

Kd: 101 nM
B34: TR01H068-E22Hh/none-Hi-Kn010G3/L0000-k0 (antibody, human IgG1, kappa, L234A L235A, N297A)
heavy: B1 heavy with G53D, N56Q, A75D, I81L, S104A, I111A
chain: B1 chain
light: B1 light
notes: as for B1

Kd: 139 nM
B35: TR01H067-E22Hh/none-Hi-Kn010G3/L0248-k0 (antibody, human IgG1, kappa, L234A L235A, N297A)
heavy: B1 heavy with V11L, G16R, G53D, N56Q, A75D, I81L, S104A, I111A
chain: B1 chain
light: B1 light with S25P, L29P, L38I, H39Q, G94Y
notes: as for B1
